Results on 16 molecules are retold here after patent US20120207760A1.

The target of assay [1] is recombinant homotrimeric HA, A/California/4/09 H1N1 (Influenza A virus A/California/4/09 (H1N1)). Put plainly: trimeric HA microarray, transfection set 5. The conditions noted are these: remark: other sources report otherwise.
Assay [2] deals with recombinant homotrimeric HA, A/Indonesia/5/05 H5N1 (Influenza A virus A/Indonesia/5/05 (H5N1)). Kind of assay: trimeric HA microarray, transfection set 5. The conditions noted are these: remark: other sources report otherwise.
Assay [3] deals with recombinant homotrimeric HA, A/Japan/305/57 H2N2 (Influenza A virus A/Japan/305/57 (H2N2)). Put plainly: trimeric HA microarray, transfection set 5. The conditions noted are these: remark: other sources report otherwise.
For assay [4], the target named is recombinant homotrimeric HA, A/Solomon Islands/3/06 H1N1 (Influenza A virus A/Solomon Islands/3/06 (H1N1)). Kind of assay: trimeric HA microarray, transfection set 5. The conditions noted are these: remark: other sources report otherwise.
Assay [5] deals with recombinant homotrimeric HA, A/South Carolina/1/18 H1N1 (Influenza A virus A/South Carolina/1/18 (H1N1)). Kind of assay: trimeric HA microarray, transfection set 5. The conditions noted are these: remark: other sources report otherwise.
Assay [6] concerns the target recombinant homotrimeric HA, A/Wisconsin/67/05 H3N2 (Influenza A virus A/Wisconsin/67/05 (H3N2)). Kind of assay: trimeric HA microarray, transfection set 5. The conditions noted are these: remark: other sources report otherwise.
Assay [7] deals with M2 protein of influenza A/Hong Kong/483/97 (H5N1) (Influenza A virus A/Hong Kong/483/97).
Assay [8] deals with recombinant homotrimeric HA, A/swine/Ontario/01911-2/99 H4N6 (Influenza A virus A/swine/Ontario/01911-2/99 (H4N6)). Kind of assay: trimeric HA microarray, transfection set 5. The conditions noted are these: remark: other sources report otherwise.

B1: TCN-540 (5060_F05) (antibody, V domains shown)
VH: QVQLVQSGGGVVQPGRSLRLSCAASGFTFSSYAMHWVRQAPGKGLEWVAIISYDGNDQYYTDSVKGRFTISRDSSKVYLQMHRLRPEDTAVYYCAKEFETSGYFHGSFDYWGQGILVTVSS
VL: QSALTQPASVSGSPGQSITISCTGTSSDVGGYNYVSWYQQHPGKAPKLLIYEVTNWPSGVSNRFSGSKSGNTASLTISGLQAEDEADYYCSSYAGSSTWVFGGGTRVTVL
As to B1, the Trimeric HA Binding RLU was 984 RLU in assay [1]; 2570 RLU in assay [2]; 47900 RLU in assay [3]; 1180 RLU in assay [4]; 1360 RLU in assay [5]; 53000 RLU in assay [6].

B2: 3248_P18 (antibody, V domains shown)
VH: QVQLQESGPGLVKPSETLSLTCTVSGGSISAYHWSWIRQPPGKGLEWIGHIFDSGSTYYNPSLKSRVTISLDASKNQLSLRLTSVTASDTAIYYCARPLGSRYYYGMDVWGQGTTVTVSS
VL: DIQMTQSPSSLSASVGDRVTITCRASQSISRYLNWYQQKPGKAPKLLIYGASTLQNGAPSRFSGSGSGTDFTLTISSLQPEDSATYLCQQSYSVPAFGGGTKVEVK
In assay [7], B2 gave an FACS M2-HK MFI of 967 MFI.

B3: 3260_D19 (antibody, V domains shown)
VH: DMQLVESGGGLVPPGGSLRLSCAASGFSVSDNYINWVRQAPGKGLDWVSVFYSADRTSYADSVKGRFTVSSHDSKNTVYLQMNSLRAEDTAVYYCARVQKSYYGMDVWGQGTTVTVSS
VL: GIQMTQSPSSLSASVGDRVTITCRASQSISRYLNWYLQKPGKAPKLLISGASSLQSGVPSRFSGTGSGTEFTLTISSLQPEDFATYYCQQTFSIPLFGQGTKVEIK
Regarding B3, the FACS M2-HK MFI in assay [7] was found to be 846 MFI.

B4: 3242_P05 (antibody, V domains shown)
VH: DMQLVESGGGLVPPGGSLRLSCAASGFSVSDNYINWVRQAPGKGLDWVSVFYSADRTSYADSVKGRFTVSSHDSKNTVYLQMNSLRAEDTAVYYCARVQKSYYGMDVWGQGTTVTVSS
VL: GIQMTQSPSSLSASVGDRVTITCRASQSISRYLNWYLQKPGKAPKLLISGASSLQSGVPSRFSGTGSGTEFTLTISSLQPEDFATYYCQQTFSIPLFGQGTKVEIK
For the molecule B4, in assay [7], the FACS M2-HK MFI turned out to be 596 MFI.

B5: TCN-558 (5248_H10b) (antibody, V domains shown)
VH: QVQLVQSGSEVKKPGTSVKVSCTASGSVFTNYGISWVRQAPGQGLEWMGGIIPLFGAAKYAQKFQGRVTITADESTKTVYMELSRLTSKDTAIYFCAKAPRVYEYYFDQWGQGTPVTVSS
VL: EIVMTQFPATLSVSPGERVTLSCRASQSVSNNLAWYQQKPGQPPRLLIYDASTRATGVPAKFSGTGSGTEFTLSISSLQSEDFAVYYCQQYHNWPPSYSFGLGTKLEIK
For B5, the Trimeric HA Binding RLU in assay [1] is 20200 RLU; in assay [3] it was 34400 RLU; in assay [4], 36100 RLU; in assay [5] it was 40700 RLU; in assay [6], 26600 RLU; in assay [8], 10000 RLU.

B6: TCN-550 (5096_F06) (antibody, V domains shown)
VH: QVQLQESGPGLVKPSETLSLTCTVSGASINSHYWSWIRQPPGKGLEWIGYVYYSGSTTYNPSLKSRVTLSVDTSKNQFSLNLSSVTAADTAFYYCARHPYDVLTGSGDWFDPWGQGTLVTVSS
VL: SYVLTQAPSVSVAPGQTARITCGGNAIGSKKVHWYQHKAGQAPVLVVYDDTDRPSGIPERFSGSNSWSTATLTINRVEAGDEADYYCQVWDFTIDHVVFGGGTKLTVL
Take B6: the Trimeric HA Binding RLU stood at 628 RLU in assay [1]; 9000 RLU in assay [2]; 731 RLU in assay [3]; 758 RLU in assay [4]; 1010 RLU in assay [5]; 37800 RLU in assay [6].

B7: 3241_G23 (antibody, V domains shown)
VH: QVQLQQSGPGLVKPSQTLSLTCTVSGGPVSGGGYSWNWIRQRPGQGLEWVGFMFHSGSPRYNPTLKSRITISVDTSKNLVSLKLSSVTAADTAVYFCARVGQMDKYYAMDVWGQGTTVTVSS
VL: DIQMTQSPSSLSSSVGDRVTITCRASQSIGAYVNWYQQKAGKAPQVLIFGASNLQSGVPSRFSGSGSGTDFTLTISSLQPEDFATYFCQQTYSTPITFGQGTRLEIK
The molecule B7 showed an FACS M2-HK MFI in assay [7] of 1700 MFI.

B8: 3139_P23 (antibody, V domains shown)
VH: QVQLQESGPRLVKPSESLSLTCTVSGGSISNSFWGWIRQPPGEGLEWIGYVYNSGNTKYNPSLKSRVTISRDTSKSQLYMKLRSVTAADTAVYYCARHDDASHGYSISWGHGTLVTVSS
VL: DIQMTQSPSSLSASVGDRVTITCRASQTISTYLNWYQQKSGKAPKLLIYAASGLQSGVPSRFSGSGSGTDFTLTISSLQPEDFATYFCQQSYNTPLTFGQGTKVEIK
In turn, B8 showed an FACS M2-HK MFI in assay [7] of 110 MFI.

B9: TCN-554 (5277_M05) (antibody, V domains shown)
VH: QVQLVQSGADLKKPGASVKVSCKASGYTFTDYYIHWVRQAPGQGLEWMGWINPESGDTKYAQKFQGRVTMTRDTSITTAYMELGRLRSDDTAVYYCARDVSTTWSWFAPWGQGTLVTVSS
VL: DIVMTQSPDSLAVSLGERATINCRSSQSIFHNSNNENYLAWYQQKPGQPPKLLIYWASTRESGVPDRFSGSGSGTDFTLTISSLQAEDVAVYFCQQYYNAPLTFGGGTKVEIK
B9: the Trimeric HA Binding RLU in assay [3] came to 2620 RLU; in assay [4], 992 RLU; in assay [5], 1260 RLU; in assay [6], 25300 RLU; in assay [8] it was 5400 RLU.

B10: 3252_C13 (antibody, V domains shown)
VH: QVQLQESGPGLVKPSETLSLTCTVSGASISSDYWSWIRLPPGKGLEWIGYIYNRGSTKYTPSLKSRVTISLDTAENQFSLRLRSVTAADTAIYYCARHVGGHTYGIDYWGQGTLVTVSS
VL: DIQMTQSPSSLSASVGDRVTITCRASQSISNYLNWYQHKPGEAPKLLNYAASSLQSGVPSRFSASGSGTDFTLTISSLQPEDFATYYCQQSYNTPITFGQGTRLEIK
B10: the FACS M2-HK MFI in assay [7] stood at 449 MFI.

B11: 3255_J06 (antibody, V domains shown)
VH: QVQLQESGPGLVKPSETLSLTCTVSGASISSDYWSWIRLPPGKGLEWIGYIYNRGSTKYTPSLKSRVTISLDTAENQFSLRLRSVTAADTAVYYCARHVGGHTYGIDYWGQGTLVTVSS
VL: DIQMTQSPSSLSASVGDRVTITCRASQSISNYLNWYQHKPGEAPKLLNYAASSLQSGVPSRFSASGSGTDFTLSISGLQPEDFATYYCQQSYNTPITFGPGTRLEIK
For B11, in assay [7], the FACS M2-HK MFI amounted to 442 MFI.

B12: 3420_I23 (antibody, V domains shown)
VH: QVQLQESGPGLVKPSETLSVTCKVSGDSISSYSWSWIRQPPGKGLEWVGYLYYSGSTKYNPSLKSRTTISVDTSTNQLSLKLSFVTAADTAVYFCARTGSESTTGYGMDVWGQGTTVTVSS
VL: DIQMTQSPSSLSASVGDRVTITCRASQSISTYLNWYQQKPGKAPKLLIYAASSLHSGVPSRFSGSGSGTDFALTISSLQPEDFATYYCQQSYSPPITFGQGTRLEIK
For B12, the FACS M2-HK MFI in assay [7] is 112 MFI.

B13: 3362_B11 (antibody, V domains shown)
VH: QVQLQASGPGLVKPSETLSLTCTVSGDSITSGAYYWTWIRQHPGKGLEWIGYIYYSGNTYYNPSLKSRVTISLDTSKNQFSLKVNSVTAADTAVYYCARAASTSVLGYGMDVWGQGTTVTVSS
VL: DIQMTQSPSSLSASVGDRVTITCRASQSISRYLNWYQQEPGKAPKLLVYAASSLQSGVPSRFSGSGSGTDFTLTISSLQPEDFATYYCQQSYSTPLTFGQGTRLEIK
As to B13, in assay [7], the FACS M2-HK MFI worked out at 218 MFI.

B14: TCN-537 (3194_D21) (antibody, V domains shown)
VH: QVQLQQWGSGLLKPSETLSLTCAVYGGSFRDDYWTWIRQPPGKGLEWIGEINHSGRTNYNPSLKSRVTISVDTSLKQFSLKVISVTAADTAVYYCARGTSHVSRYFDWLPPTNWFDPWGQGTQVTVSS
VL: DIVLTQSPGTLSLSPGERATLSCRASQSVSSSYLAWYQQKPGQAPRLVMYGAATRATGIPDRFSGSGSGPDFTLTISRLEPEDFAMYYCQQYGNSPITFGQGTRLEIK
Consider B14, for which the Trimeric HA Binding RLU was found to be 33800 RLU in assay [1]; 16200 RLU in assay [3]; 46800 RLU in assay [5]; 1940 RLU in assay [6]; 3280 RLU in assay [8].

B15: 3253_P10 (antibody, V domains shown)
VH: QVQLQESGPGLLKPSDTLALTCTVSGGSITSDYWSWIRQPPGRGLDWIGFFYNGGSTKYNPSLKSRVTISADTSKNQLSLKLTSVTAADTGVYYCARHDAKFSGSYYVASWGQGTRVTVSS
VL: DIQMTQSPSSLSASVGDRVTISCRASQSISTYLNWYQQQPGKAPKVLISGATDLQSGVPSRFSGSGSGTDFTLTISSLQPEDFATYYCQQSYNTPLIFGQGTKLEIK
The molecule B15 registered an FACS M2-HK MFI in assay [7] of 43 MFI.

B16: 3244_I10 (antibody, V domains shown)
VH: QVQLQESGPGLLKPSDTLALTCTVSGGSITSDYWSWIRQPPGRGLDWIGFFYNGGSTKYNPSLKSRVTISADTSKNQLSLKLTSVTAADTGVYYCARHDAKFSGSYYVASWGQGTRVTVSS
VL: DIQMTQSPSSLSASVGDRVTISCRASQSISTYLNWYQQQPGKAPKVLIFGATNLQSGVPSRFSGSGSGTDFTLTISSLQPEDFATYYCQQSYNTPLIFGQGTKLEIK
As to B16, the FACS M2-HK MFI in assay [7] was found to be 434 MFI.
